The target in the assay is T1, CD3 epsilon homodimer protein (UniProt P07766 23-126).
T1 construct: construct not described; homodimer as printed; also called CD3 (CD3 epsilon)
Kind of assay: SPR Biacore T200, CD3 epsilon homodimer immobilized; vs unaltered GLS3000.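 Also: antibody variants flowed as analyte over CD3 epsilon homodimer amine-coupled to a CM4 chip, at 25 °C in HBS-EP+ running buffer, fitted with Biacore T200 Evaluation Software.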

Where a chain is given by its changes, count along the chain named. Numbers in names are those of the source.

These results are taken from patent US20240270846A1 (published 2024).

T1 sequence (P07766 23-126): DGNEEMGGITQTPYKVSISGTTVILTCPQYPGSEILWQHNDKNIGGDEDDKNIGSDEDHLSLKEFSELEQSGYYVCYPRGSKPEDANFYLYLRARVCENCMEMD

B1: GLS3000 N28D (Kabat) L chain altered form, one-arm antibody with CE115HA000 (antibody, human IgG1, kappa, L234A L235A, N297A, name in Kabat numbering)
heavy: QVQLVESGGGVVQPGRSLRLSCAASGFTFSNAWMHWVRQAPGKGLEWVAQIKAKSNNYATYYAESVKGRFTISRDDSKNSLYLQMNSLKTEDTAVYYCRYVHYGAYYGVDAWGQGTTVTVSSASTKGPSVFPLAPSSKSTSGGTAALGCLVKDYFPEPVTVSWNSGALTSGVHTFPAVLQSSGLYSLSSVVTVPSSSLGTQTYICNVNHKPSNTKVDKKVEPKSCDKTHTCPPCPAPEAAGGPSVFLFPPKPKDTLMISRTPEVTCVVVDVSHEDPEVKFNWYVDGVEVHNAKTKPREEQYASTYRVVSVLTVLHQDWLNGKEYKCKVSNKALPAPIEKTISKAKGQPREPQVYTLPPSRCELTKNQVSLSCAVKGFYPSDIAVEWESNGQPENNYKTTPPVLDSDGSFFLVSKLTVDKSRWQQGNVFSCSVMHEALHNHYTQKSLSLSPDYKDDDDK
chain: EPKSSDKTHTCPPCPAPELLGGPSVFLFPPKPKDTLMISRTPEVTCVVVDVSHEDPEVKFNWYVDGVEVHNAKTKPREEQYNSTYRVVSVLTVLHQDWLNGKEYKCKVSNKALPAPIEKTISKAKGQPREPQVCTLPPSRDELTKNQVSLWCLVKGFYPSDIAVEWESNGQPENNYKTTPPVLDSDGSFFLYSKLTVDKSRWQQGNVFSCSVMHEALHNRYTQKSLSLSP
light: DIVMTQSPLSLPVTPGEPASISCRSSQSLVHSDRNTYLHWYQQKPGQAPRLLIYKVSNRFSGVPDRFSGSGSGTDFTLKISRVEAEDVGVYYCGQGTQVPYTFGQGTKLEIKRTVAAPSVFIFPPSDEQLKSGTASVVCLLNNFYPREAKVQWKVDNALQSGNSQESVTEQDSKDSTYSLSSTLTLSKADYEKHKVYACEVTHQGLSSPVTKSFNRGEC
notes: one-arm antibody
Take B1: the “KD ratio to GLS3000 (Affinity up)” value was found to be 4460.

B2: GLS3000 N28M (Kabat) L chain altered form, one-arm antibody with CE115HA000 (antibody, human IgG1, kappa, L234A L235A, N297A, name in Kabat numbering)
heavy: B1 heavy
chain: B1 chain
light: B1 light with D33M
notes: one-arm antibody
For the molecule B2, the “KD ratio to GLS3000 (Affinity up)” value was 3.29.

B3: GLS3000 N28K (Kabat) L chain altered form, one-arm antibody with CE115HA000 (antibody, human IgG1, kappa, L234A L235A, N297A, name in Kabat numbering)
heavy: B1 heavy
chain: B1 chain
light: B1 light with D33K
notes: one-arm antibody
Take B3: the “KD ratio to GLS3000 (Affinity up)” value worked out at 2.34.

B4: GLS3000 N28L (Kabat) L chain altered form, one-arm antibody with CE115HA000 (antibody, human IgG1, kappa, L234A L235A, N297A, name in Kabat numbering)
heavy: B1 heavy
chain: B1 chain
light: B1 light with D33L
notes: one-arm antibody
In the case of B4, the “KD ratio to GLS3000 (Affinity up)” value was found to be 3.34.

B5: GLS3000 N28P (Kabat) L chain altered form, one-arm antibody with CE115HA000 (antibody, human IgG1, kappa, L234A L235A, N297A, name in Kabat numbering)
heavy: B1 heavy
chain: B1 chain
light: B1 light with D33P
notes: one-arm antibody
For the molecule B5, the “KD ratio to GLS3000 (Affinity up)” value is 4.18.

B6: GLS3000 N28G (Kabat) L chain altered form, one-arm antibody with CE115HA000 (antibody, human IgG1, kappa, L234A L235A, N297A, name in Kabat numbering)
heavy: B1 heavy
chain: B1 chain
light: B1 light with D33G
notes: one-arm antibody
As to B6, the “KD ratio to GLS3000 (Affinity up)” value was 2.41.

B7: GLS3000 N28E (Kabat) L chain altered form, one-arm antibody with CE115HA000 (antibody, human IgG1, kappa, L234A L235A, N297A, name in Kabat numbering)
heavy: B1 heavy
chain: B1 chain
light: B1 light with D33E
notes: one-arm antibody
For the molecule B7, the “KD ratio to GLS3000 (Affinity up)” value came out at 5.47.

B8: GLS3000 N28I (Kabat) L chain altered form, one-arm antibody with CE115HA000 (antibody, human IgG1, kappa, L234A L235A, N297A, name in Kabat numbering)
heavy: B1 heavy
chain: B1 chain
light: B1 light with D33I
notes: one-arm antibody
In the case of B8, the “KD ratio to GLS3000 (Affinity up)” value is 2.81.

B9: GLS3000 N28F (Kabat) L chain altered form, one-arm antibody with CE115HA000 (antibody, human IgG1, kappa, L234A L235A, N297A, name in Kabat numbering)
heavy: B1 heavy
chain: B1 chain
light: B1 light with D33F
notes: one-arm antibody
As for B9, the “KD ratio to GLS3000 (Affinity up)” value was 2.59.

B10: GLS3000 N28H (Kabat) L chain altered form, one-arm antibody with CE115HA000 (antibody, human IgG1, kappa, L234A L235A, N297A, name in Kabat numbering)
heavy: B1 heavy
chain: B1 chain
light: B1 light with D33H
notes: one-arm antibody
B10: the “KD ratio to GLS3000 (Affinity up)” value amounted to 3.
